Laboratory results reported in the supplement of paper PMC9112550, “Optimization of the antimicrobial peptide Bac7 by deep mutational scanning” (BMC Biology, 2022).

test system: Escherichia coli TOP10; experiment: shrunken log2 fold change of peptide-encoding DNA abundance (4.5 h post-induction vs induction); higher = less antimicrobial activity (less host growth inhibition); settings: time post-induction: 4.5 h; library: site-saturation at positions 5, 18, 19, 20
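Note: peptides expressed intracellularly from a pBAD plasmid library in pooled LB shake-flask culture, induced with 0.3% L-arabinose, DNA abundance read by NGS, three biological replicates, DESeq2 with apeglm shrinkage.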

Row | Sequence | shrunken log2 fold change
1 | RRIRNRPPRLPRPRPRPGPIPRP | 0.058
2 | RRIRARPPRLPRPRPRPKDKPRP | 0.0564
3 | RRIRARPPRLPRPRPRPRFDPRP | 0.236
4 | RRIRFRPPRLPRPRPRPQGKPRP | -0.227
5 | RRIRPRPPRLPRPRPRPHDQPRP | 0.134
6 | RRIRRRPPRLPRPRPRPFPSPRP | 0.114
7 | RRIRLRPPRLPRPRPRPCDYPRP | -0.191
8 | RRIRTRPPRLPRPRPRPLNEPRP | -0.0228
9 | RRIRARPPRLPRPRPRPRTVPRP | 0.457
10 | RRIRFRPPRLPRPRPRPATIPRP | -0.506
11 | RRIRTRPPRLPRPRPRPPVFPRP | 0.346
12 | RRIRKRPPRLPRPRPRPDPDPRP | 0.431
13 | RRIRSRPPRLPRPRPRPCDGPRP | 0.0333
14 | RRIRQRPPRLPRPRPRPIIPPRP | -0.904
15 | RRIRRRPPRLPRPRPRPVWGPRP | 0.359
16 | RRIRCRPPRLPRPRPRPTTYPRP | -0.781
17 | RRIRWRPPRLPRPRPRPSVFPRP | 0.222
18 | RRIRERPPRLPRPRPRPPHSPRP | 0.0332
19 | RRIRFRPPRLPRPRPRPFMHPRP | -0.147
20 | RRIRPRPPRLPRPRPRPWHNPRP | -0.809
21 | RRIRWRPPRLPRPRPRPKERPRP | 0.0355
22 | RRIRARPPRLPRPRPRPMRTPRP | 0.802
23 | RRIRWRPPRLPRPRPRPLRSPRP | 0.884
24 | RRIRDRPPRLPRPRPRPSVQPRP | 0.111
25 | RRIRLRPPRLPRPRPRPKEFPRP | -0.0126

Row | Sequence | shrunken log2 fold change
26 | RRIRGRPPRLPRPRPRPWQHPRP | -0.0318
27 | RRIRWRPPRLPRPRPRPEQSPRP | 0.678
28 | RRIRVRPPRLPRPRPRPNTHPRP | -0.457
29 | RRIRMRPPRLPRPRPRPWFWPRP | 0.221
30 | RRIRMRPPRLPRPRPRPVTDPRP | -0.0129
31 | RRIRVRPPRLPRPRPRPPQIPRP | 0.22
32 | RRIRCRPPRLPRPRPRPGAWPRP | 0.462
33 | RRIRVRPPRLPRPRPRPQAFPRP | 0.0753
34 | RRIRVRPPRLPRPRPRPNVKPRP | -0.159
35 | RRIRNRPPRLPRPRPRPSDIPRP | 0.0588
36 | RRIRIRPPRLPRPRPRPRGCPRP | 0.255
37 | RRIRSRPPRLPRPRPRPKSFPRP | 0.172
38 | RRIRQRPPRLPRPRPRPKYNPRP | -0.879
39 | RRIRVRPPRLPRPRPRPVFCPRP | 0.142
40 | RRIRARPPRLPRPRPRPRKNPRP | 0.472
41 | RRIRFRPPRLPRPRPRPDQCPRP | -0.0562
42 | RRIRLRPPRLPRPRPRPDIEPRP | 0.0333
43 | RRIRQRPPRLPRPRPRPPCDPRP | -0.0587
44 | RRIRRRPPRLPRPRPRPDKTPRP | 0.119
45 | RRIRRRPPRLPRPRPRPCVYPRP | -0.42
46 | RRIRNRPPRLPRPRPRPHKAPRP | 0.00883
47 | RRIRNRPPRLPRPRPRPRIYPRP | -0.0955
48 | RRIRTRPPRLPRPRPRPFIPPRP | -0.312
49 | RRIRERPPRLPRPRPRPQWFPRP | -0.166
50 | RRIRWRPPRLPRPRPRPEALPRP | 0.174

Row | Sequence | shrunken log2 fold change
51 | RRIRLRPPRLPRPRPRPRFFPRP | 0.0823
52 | RRIRMRPPRLPRPRPRPPGDPRP | 1.51
53 | RRIRLRPPRLPRPRPRPYPEPRP | -0.201
54 | RRIRYRPPRLPRPRPRPTNAPRP | -0.24
55 | RRIRGRPPRLPRPRPRPCRHPRP | 0.0672
56 | RRIRSRPPRLPRPRPRPIKSPRP | 0.041
57 | RRIRWRPPRLPRPRPRPLRVPRP | 0.874
58 | RRIRPRPPRLPRPRPRPCEYPRP | 1.65
59 | RRIRHRPPRLPRPRPRPLALPRP | -0.563
60 | RRIRHRPPRLPRPRPRPAYPPRP | -0.37
61 | RRIRFRPPRLPRPRPRPPEIPRP | -0.204
62 | RRIRHRPPRLPRPRPRPERQPRP | -0.0882
63 | RRIRHRPPRLPRPRPRPKQHPRP | -0.2
64 | RRIRWRPPRLPRPRPRPHANPRP | -0.00914
65 | RRIRSRPPRLPRPRPRPMSPPRP | -0.125
66 | RRIRMRPPRLPRPRPRPTTPPRP | 1.15
67 | RRIRRRPPRLPRPRPRPMKEPRP | 0.135
68 | RRIRVRPPRLPRPRPRPLYQPRP | -0.0431
69 | RRIRRRPPRLPRPRPRPTQEPRP | 0.212
70 | RRIRRRPPRLPRPRPRPWPEPRP | -0.201
71 | RRIRRRPPRLPRPRPRPSISPRP | -0.774
72 | RRIRIRPPRLPRPRPRPKVVPRP | -0.00466
73 | RRIRYRPPRLPRPRPRPRSCPRP | -0.434
74 | RRIRMRPPRLPRPRPRPLTWPRP | 0.308
75 | RRIRFRPPRLPRPRPRPLWRPRP | 0.32

Row | Sequence | shrunken log2 fold change
76 | RRIRFRPPRLPRPRPRPRGVPRP | 0.0819
77 | RRIRRRPPRLPRPRPRPYPQPRP | -0.0454
78 | RRIRNRPPRLPRPRPRPQCPPRP | -0.33
79 | RRIRDRPPRLPRPRPRPNQHPRP | -0.283
80 | RRIRIRPPRLPRPRPRPGRKPRP | 0.0417
81 | RRIRQRPPRLPRPRPRPAGSPRP | 0.0285
82 | RRIRRRPPRLPRPRPRPPWWPRP | 0.862
83 | RRIRMRPPRLPRPRPRPMTQPRP | 0.22
84 | RRIRARPPRLPRPRPRPSCRPRP | 0.248
85 | RRIRERPPRLPRPRPRPLQMPRP | -0.0246
86 | RRIRDRPPRLPRPRPRPPSLPRP | -0.128
87 | RRIRWRPPRLPRPRPRPLARPRP | 0.432
88 | RRIRLRPPRLPRPRPRPGRQPRP | 0.207
89 | RRIRKRPPRLPRPRPRPVNVPRP | 0.0147
90 | RRIRGRPPRLPRPRPRPCRQPRP | 0.436
91 | RRIRWRPPRLPRPRPRPNFWPRP | 0.224
92 | RRIRNRPPRLPRPRPRPMYRPRP | -0.473
93 | RRIRIRPPRLPRPRPRPHRAPRP | 0.0775
94 | RRIRRRPPRLPRPRPRPSICPRP | 0.00217
95 | RRIRYRPPRLPRPRPRPFWVPRP | -0.0684
96 | RRIRMRPPRLPRPRPRPGPDPRP | 0.768
97 | RRIRTRPPRLPRPRPRPYATPRP | -0.178
98 | RRIRDRPPRLPRPRPRPQPNPRP | 0.072
99 | RRIRCRPPRLPRPRPRPCAWPRP | 0.0576
100 | RRIRLRPPRLPRPRPRPTLDPRP | 0.0159

Row | Sequence | shrunken log2 fold change
101 | RRIRIRPPRLPRPRPRPYIFPRP | -0.425
102 | RRIRTRPPRLPRPRPRPEIHPRP | -0.0341
103 | RRIRCRPPRLPRPRPRPASIPRP | -0.612
104 | RRIRRRPPRLPRPRPRPEYQPRP | 0.119
105 | RRIRMRPPRLPRPRPRPILQPRP | 0.133
106 | RRIRRRPPRLPRPRPRPTHDPRP | 0.89
107 | RRIRQRPPRLPRPRPRPGDKPRP | -0.187
108 | RRIRNRPPRLPRPRPRPKHFPRP | 0.054
109 | RRIRRRPPRLPRPRPRPLTTPRP | 0.311
110 | RRIRRRPPRLPRPRPRPVLGPRP | 0.528
111 | RRIRPRPPRLPRPRPRPPPDPRP | 0.622
112 | RRIRWRPPRLPRPRPRPELWPRP | 0.729
113 | RRIRPRPPRLPRPRPRPCMRPRP | -0.239
114 | RRIRGRPPRLPRPRPRPRGSPRP | 0.832
115 | RRIRTRPPRLPRPRPRPKYFPRP | -0.444
116 | RRIRWRPPRLPRPRPRPDVMPRP | 0.126
117 | RRIRLRPPRLPRPRPRPKTVPRP | -0.0699
118 | RRIRFRPPRLPRPRPRPTYPPRP | -0.497
119 | RRIRIRPPRLPRPRPRPMNLPRP | -0.152
120 | RRIRERPPRLPRPRPRPMWVPRP | 0.292
121 | RRIRGRPPRLPRPRPRPYREPRP | 0.00752
122 | RRIRERPPRLPRPRPRPEKWPRP | -0.0225
123 | RRIRTRPPRLPRPRPRPYWWPRP | -0.554
124 | RRIRMRPPRLPRPRPRPFPYPRP | -0.23
125 | RRIRVRPPRLPRPRPRPKKPPRP | -0.0463

Row | Sequence | shrunken log2 fold change
126 | RRIRFRPPRLPRPRPRPTYLPRP | -0.243
127 | RRIRCRPPRLPRPRPRPYQNPRP | -1.1
128 | RRIRHRPPRLPRPRPRPNCIPRP | -0.753
129 | RRIRCRPPRLPRPRPRPQWVPRP | -0.103
130 | RRIRRRPPRLPRPRPRPGFPPRP | 3.88
131 | RRIRMRPPRLPRPRPRPLQRPRP | 0.0735
132 | RRIRSRPPRLPRPRPRPFVEPRP | -0.123
133 | RRIRFRPPRLPRPRPRPNQSPRP | -0.32
134 | RRIRGRPPRLPRPRPRPCFLPRP | 0.0171
135 | RRIRNRPPRLPRPRPRPKCGPRP | -0.0686
136 | RRIRQRPPRLPRPRPRPGMIPRP | -0.446
137 | RRIRLRPPRLPRPRPRPGTDPRP | -0.151
138 | RRIRARPPRLPRPRPRPEMLPRP | 0.234
139 | RRIRHRPPRLPRPRPRPGKFPRP | -0.175
140 | RRIRSRPPRLPRPRPRPVARPRP | 0.148
141 | RRIRQRPPRLPRPRPRPVRGPRP | 1.97
142 | RRIRERPPRLPRPRPRPLILPRP | -0.574
143 | RRIRFRPPRLPRPRPRPKTYPRP | -0.578
144 | RRIRWRPPRLPRPRPRPNSSPRP | -0.0636
145 | RRIRKRPPRLPRPRPRPHQEPRP | 0.0459
146 | RRIRDRPPRLPRPRPRPWIWPRP | 0.188
147 | RRIRWRPPRLPRPRPRPGIYPRP | -0.137
148 | RRIRLRPPRLPRPRPRPRTHPRP | 0.189
149 | RRIRFRPPRLPRPRPRPPMQPRP | 0.115
150 | RRIRWRPPRLPRPRPRPHWVPRP | 0.0436
